Test results: patent publication US6635429B1, “Heterodimeric nuclear receptors proteins, genes encoding same, and usage thereof” (Institut National de la Sante et de la Recherche Medicale, dated 1993)

Target: the molecule itself
Assay: cell-based or functional assay

B1: human RARα1 (a.a. 1 to 462) (receptor)
chain: MASNSSSCPTPGGGHLNGYPVPPYAFFFPPMLGGLSPPGALTTLQHQLPVSGYSTPSPATIETQSSSSEEIVPSPPSPPPLPRIYKPCFVCQDKSSGYHYGVSACEGCKGFFRRSIQKNMVYTCHRDKNCIINKVTRNRCQYCRLQKCFEVGMSKESVRNDRNKKKKEVPKPECSESYTLTPEVGELIEKVRKAHQETFPALCQLGKYTTNNSSEQRVSLDIDLWDKFSELSTKCIIKTVEFAKQLPGFTTLTIADQITLLKAACLDILILRICTRYTPEQDTMTFSDGLTLNRTQMHNAGFGPLTDLVFAFANQLLPLEMDDAETGLLSAICLICGDRQDLEQPDRVDMLQEPLLEALKVYVRKRRPSRPHMFPKMLMKITDLRSISAKGAERVITLKMEIPGSMPPLIQEMLENSEGLDTLSGQPGGGGRDGGGLAPPPGSCSPSLSPSSNRSSPATHSP
OMPdecase activity of the DR5-URA3 reporter in yeast: ~5 fold
